Biological target: T1, His-tagged Tau domain IV (AA 355-441 of hTau40) (human, UniProt O02828 317-403 (Capra hircus entry))
T1 construct: Expressed in E. coli BL21 (DE3) and purified on Ni-NTA; not shown: N-terminal 6xHis tag from pRSET-A vector
Assay: Western blot of His-tagged tau domains and hTau40
Method: DNA fragments, synthesized using GeneArt® (Invitrogen), which encode each Tau domain with 6×His tagged at the N-terminus were cloned into the pRSET-A expression vector (Invitrogen), were transfected into E. coli BL21 (DE3) (New England Biolabs). The expressions of the His-tagged Tau domains were induced by 0.5 mM IPTG for six hours before bacteria were lysed with lysozyme with sonication. The lysate was boiled for five minutes before being further purified with Ni-NTA Superflow Columns (Qiagen). The eluted His-tagged Tau domains were coated on ELISA plates or loaded on polyacrylamide gel for Western Blot. These sequentially overlapping tau domain polypeptides cover the full length of hTau40 (FIG. 13A).

T1 sequence (O02828 317-403): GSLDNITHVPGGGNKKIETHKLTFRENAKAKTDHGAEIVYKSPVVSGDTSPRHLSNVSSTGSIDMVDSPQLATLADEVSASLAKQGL

binding result: no binding
B1: Recombinant human antibody NI-105.4A3 (antibody, V domains shown)
VH: QVQLVESGGGAVQPGGSLRLSCAASGFTFSDYAMHWVRQAPGKGLQWVAVISYEGTYKYYADSVKGRFTISRDNSKNTLNLQMSSLRVEDTAVYFCVKARAFASGQRSTSTVPDYWGQGTLVTVSS
VL: SYELTQPPSVSVSPGQTARITCSGDALPKKYAYWYQQKSGQAPVLVIYEDNKRPSGIPERFSGSSSGTVATLTISGAQVDDEADYYCYSTDISGDLRVFGGGTKLTVL
